Article PMC5580658
Numbering of substitutions follows the chain as printed.

Key:
[1] = target: T1, Hfq (Escherichia coli, UniProt P0A6X3 1-102); test: EMSA
[2] = target: T1, Hfq; test: EMSA; remark: listed apart in the source

T1 sequence (P0A6X3 whole entry): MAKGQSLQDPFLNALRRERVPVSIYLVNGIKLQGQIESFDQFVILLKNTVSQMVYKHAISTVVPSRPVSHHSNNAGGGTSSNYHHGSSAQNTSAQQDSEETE

B1: mutS leader ARN3* (structured_RNA)
RNA: GGUGCGCCUUAUGUGAUUACAACGAAAAUAAAAACCAUCACACCCCAUUUAAUAUCAGGGAACCGGACAUAACCCCAUGAGUGCCAUCGAGAAUUUCGACGCCCAU
[1]
  Kd: ~19 nM

B2: mutS leader ARN1* (structured_RNA)
RNA: B1 RNA with A27C, A28G, A31U, A33U, C85A, C88A, G91A
[2]
  binding signal: ~3 fold lower affinity than WT
